The values below come from paper PMC3707907, “TdIF1 Recognizes a Specific DNA Sequence through Its Helix-Turn-Helix and AT-Hook Motifs to Regulate Gene Transcription”.

Series [1] deals with T1, TdIF1 (His-tagged) (UniProt Q9H147 1-329).
T1 sequence: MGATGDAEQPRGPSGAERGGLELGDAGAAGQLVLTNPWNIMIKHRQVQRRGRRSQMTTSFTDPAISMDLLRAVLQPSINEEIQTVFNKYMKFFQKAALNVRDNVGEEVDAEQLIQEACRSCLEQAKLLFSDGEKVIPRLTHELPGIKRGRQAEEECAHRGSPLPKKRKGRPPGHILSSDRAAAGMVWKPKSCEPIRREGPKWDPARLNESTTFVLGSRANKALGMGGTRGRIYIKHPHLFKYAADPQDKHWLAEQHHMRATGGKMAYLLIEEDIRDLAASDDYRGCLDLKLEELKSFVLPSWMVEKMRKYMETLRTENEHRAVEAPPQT
As to the kind of experiment: competition; EMSA vs biotin-dsAT; 5, 15, 45 pmol; complex decreased; EMSA: 10 mM Tris-HCl pH 7.5, 100 mM NaCl, 1 mM EDTA, 1 mM DTT, 5% glycerol, 5 pmol probe, 100 ng protein in 10 ul, temperature not stated; GST pull-out: elution in 50 mM Tris-HCl pH 7.4, 5 mM beta-mercaptoethanol, 0.25% Tween 20, 10% glycerol, 150-350 mM NaCl. As to conditions: protein: recombinant; tags: His; chain copies: 2. A general note: Mobility shift assays separate free from complexed probe on a gel.

Series [2] addresses T1, TdIF1 (His-tagged). As to the kind of experiment: EMSA; EMSA: 10 mM Tris-HCl pH 7.5, 100 mM NaCl, 1 mM EDTA, 1 mM DTT, 5% glycerol, 5 pmol probe, 100 ng protein in 10 ul, temperature not stated; GST pull-out: elution in 50 mM Tris-HCl pH 7.4, 5 mM beta-mercaptoethanol, 0.25% Tween 20, 10% glycerol, 150-350 mM NaCl. As to conditions: protein: recombinant; tags: His; chain copies: 2; label: biotin.

In series [3] the target is T1, TdIF1 (His-tagged). As to the kind of experiment: competition; EMSA vs biotin-dsAT; 5, 15, 45 pmol; slightly weaker than competitor I; EMSA: 10 mM Tris-HCl pH 7.5, 100 mM NaCl, 1 mM EDTA, 1 mM DTT, 5% glycerol, 5 pmol probe, 100 ng protein in 10 ul, temperature not stated; GST pull-out: elution in 50 mM Tris-HCl pH 7.4, 5 mM beta-mercaptoethanol, 0.25% Tween 20, 10% glycerol, 150-350 mM NaCl. Particulars: protein: recombinant; tags: His; chain copies: 2.

B1: Competitor I (SELEX clone 10; AT-tract + GNTGCATG) (dsDNA)
DNA 1: CGCCAAATAAAAGTTGCATGGTCG
DNA 2: CGACCATGCAACTTTTATTTGGCG
In the case of B1, the binding result in the series with TdIF1 (His-tagged) [1] is recorded as “binds”.

B2: biotin-dsAT probe (32-bp AT-rich dsDNA) (dsDNA)
DNA 1: CGGTATTAAAAATTACTGACAATATTAAATTAGATC
DNA 2: TAATTTAATATTGTCAGTAATTTTTAATACCG
With B2, in the series with TdIF1 (His-tagged) [2], the binding result was “binds”.

B3: Competitor III (GNTGCATG only, AT-tract mutated) (dsDNA)
DNA 1: CGCCAAGCCTCAGTTGCATGGTCG
DNA 2: CGACCATGCAACTGAGGCTTGGCG
As for B3, the binding result with TdIF1 (His-tagged) [3] was “binds”.
